From patent US20050049403A1 (CAMBRIDGE ANTIBODY TECHNOLOGY, published 2005) come the findings set out here.

The target of test [1] is T1, recombinant human TGFβ2 (human, UniProt P61812 303-414).
T1 sequence (looked up): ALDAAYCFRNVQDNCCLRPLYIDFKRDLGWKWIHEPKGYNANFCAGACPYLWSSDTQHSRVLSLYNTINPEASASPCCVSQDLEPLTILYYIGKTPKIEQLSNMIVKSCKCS
Put plainly: cell-based or functional assay.

The target of test [2] is T1, recombinant human TGFβ2. The test is described as follows: cell-based or functional assay. The source holds these as a separate data set.
Test [3] has as its target T2, human lymphotoxin (TNFβ) (human, UniProt P01374 35-205, limits assumed).
T2 sequence (looked up): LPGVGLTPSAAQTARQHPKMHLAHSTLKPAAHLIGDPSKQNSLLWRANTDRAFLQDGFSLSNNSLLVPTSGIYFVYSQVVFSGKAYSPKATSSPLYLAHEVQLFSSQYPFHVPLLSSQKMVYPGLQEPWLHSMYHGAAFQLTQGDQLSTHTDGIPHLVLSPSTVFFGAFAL
The test is described as follows: ELISA, antigen coated at 10 µg/ml, anti-human Fc alkaline phosphatase conjugate, OD405 nm [a]. On the procedure:
(§1) For both FIG. 13(a) and FIG. 13(b), antigens 1 to 15 were used for coating the plate at a concentration of 10 μg/ml in PBS. The TGFbetas were coated at 0.2 μg/ml in PBS. Coating was performed at 4° C. overnight. […] of each antigen was used per well and duplicates of each antigen for each IgG to be tested. IgG samples were incubated with the coated antigens at 37° C. for 2 hours after blocking with 2%. marvel-PBS. The labelled second antibody was a mouse anti-human Fc1 alkaline phosphatase conjugated and the substrate used to detect bound second antibody was PNPP at 1 mg/ml with the absorbance read at 405 nm.
(ELISA stands for enzyme-linked immunosorbent assay.)

The target of test [4] is human insulin (human, UniProt P01308 25-54; P01308 90-110, limits assumed). Described as above. On the procedure:
as §1

Test [5] addresses human serum albumin (human, UniProt P02768 25-609). Described as above. On the procedure:
as §1

Test [6] addresses oxazolone-bovine serum albumin (bovine, UniProt P02769 25-607, oxazolone hapten coupled, sites not stated). The test is described as above. As to the method: as §1
The target of test [7] is T3, chicken egg white trypsin inhibitor (chicken, UniProt P01005 25-210).
T3 sequence (looked up): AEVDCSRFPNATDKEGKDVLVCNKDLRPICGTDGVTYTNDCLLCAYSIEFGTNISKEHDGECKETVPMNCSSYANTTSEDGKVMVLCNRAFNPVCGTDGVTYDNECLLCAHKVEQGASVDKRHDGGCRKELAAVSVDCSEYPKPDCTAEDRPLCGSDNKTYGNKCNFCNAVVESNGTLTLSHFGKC
The test is described as above. As to the method:
as §1

For test [8], the target named is T4, ovalbumin (UniProt P01012 2-386).
T4 sequence (looked up): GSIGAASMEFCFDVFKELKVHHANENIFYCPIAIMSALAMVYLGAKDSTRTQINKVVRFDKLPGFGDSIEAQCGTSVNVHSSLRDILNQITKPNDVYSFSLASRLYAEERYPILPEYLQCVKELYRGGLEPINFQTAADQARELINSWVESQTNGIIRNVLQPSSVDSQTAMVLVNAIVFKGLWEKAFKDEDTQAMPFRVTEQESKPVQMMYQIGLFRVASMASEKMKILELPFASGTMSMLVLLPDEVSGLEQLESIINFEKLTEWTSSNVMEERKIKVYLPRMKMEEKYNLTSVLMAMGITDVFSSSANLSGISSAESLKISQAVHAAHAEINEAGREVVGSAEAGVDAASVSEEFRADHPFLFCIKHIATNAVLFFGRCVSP
Described as above. On the procedure: as §1

The target in test [9] is hen egg lysozyme (hen, UniProt P00698 19-147). Described as above. On the procedure: as §1
hen egg lysozyme, sequence (P00698 19-147): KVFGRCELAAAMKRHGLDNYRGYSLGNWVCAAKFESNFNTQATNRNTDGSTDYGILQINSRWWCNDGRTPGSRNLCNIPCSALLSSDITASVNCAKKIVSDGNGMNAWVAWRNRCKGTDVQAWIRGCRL
Test [10] has as its target T5, bovine serum albumin (bovine, UniProt P02769 25-607).
T5 construct: also called BSA
The description is as above. As to the method:
as §1

For test [11], the target named is T6, recombinant human TGFβ1 (human, UniProt P01137 279-390).
T6 construct: mature; also called TGFbeta1
T6 sequence (P01137 279-390 limits assumed): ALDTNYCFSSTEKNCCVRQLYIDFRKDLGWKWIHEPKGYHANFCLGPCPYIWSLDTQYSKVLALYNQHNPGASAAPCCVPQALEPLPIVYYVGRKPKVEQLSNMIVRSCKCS
The test is described as follows: A549 cell radioreceptor assay (nM IgG); A549 cell radioreceptor assay; no inhibition up to 400 nM IgG. On the procedure: (§2) Aliqouts of ¹²⁵I-TGFβ1 or TGFβ2 (70-90 TBq/mmol; Amersham International) at 20 pM are preincubated with antibody in binding medium at room temperature for 1 h. Duplicate samples of 0.5 ml of TGFβ/antibody mixtures are then added to the cell monlayers and are incubated at 37° C. for 1-2 h. Control wells contain TGFβ only. Unbound TGFβ is removed by washing 4 times with Hank's balanced salt solution containing 0.1% BSA. Cells are solubilised in 0.8 ml 25 mM Tris HCl pH 7.5, 10% glycerol, 1% Triton X-100 at room temperature for 20 min. The contents of each well are removed and ¹²⁵I measured in a gamma counter.
The ability of 6B1 IgG4 to inhibit binding of TGFβ isoforms to receptors was measured in a radioreceptor assay as described in example 4.

For test [12], the target named is T1, recombinant human TGFβ2. Put plainly: radioreceptor assay, inhibition of 125I-TGFβ2 binding to A549 cells; concentration of antibody combining sites. As to the method:
Cells are seeded at 1-2×10^5 cells/ml/well into the wells of 24-well cluster plates and grown for 24 h in serum-free DMEM. Cell monlayers are washed twice with serum-free DMEM and 0.5 ml binding medium (DMEM/Hams F12 (Sigma D-6421) containing 0.1% (v/v) BSA added to each well.
as §2

human insulin, sequence (P01308 25-54 limits assumed, chain 1 of 2): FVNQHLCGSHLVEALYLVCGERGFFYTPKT
human insulin, sequence (P01308 90-110 limits assumed, chain 2 of 2): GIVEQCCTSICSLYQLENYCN
human serum albumin, sequence (P02768 25-609 limits assumed): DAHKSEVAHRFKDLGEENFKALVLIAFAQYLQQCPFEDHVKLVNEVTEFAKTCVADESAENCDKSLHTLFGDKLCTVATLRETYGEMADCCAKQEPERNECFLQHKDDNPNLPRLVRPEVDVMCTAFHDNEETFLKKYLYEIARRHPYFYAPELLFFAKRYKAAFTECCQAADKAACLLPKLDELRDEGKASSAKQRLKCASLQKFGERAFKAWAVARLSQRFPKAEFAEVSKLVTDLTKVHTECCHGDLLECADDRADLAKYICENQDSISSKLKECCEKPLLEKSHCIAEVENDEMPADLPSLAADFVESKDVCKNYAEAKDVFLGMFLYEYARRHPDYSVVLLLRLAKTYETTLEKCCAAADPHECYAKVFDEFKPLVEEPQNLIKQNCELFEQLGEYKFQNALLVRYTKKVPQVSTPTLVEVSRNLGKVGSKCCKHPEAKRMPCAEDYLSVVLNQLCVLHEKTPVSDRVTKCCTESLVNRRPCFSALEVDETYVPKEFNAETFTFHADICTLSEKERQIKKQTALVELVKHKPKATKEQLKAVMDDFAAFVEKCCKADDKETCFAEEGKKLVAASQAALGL
T5 sequence (P02769 25-607 limits assumed): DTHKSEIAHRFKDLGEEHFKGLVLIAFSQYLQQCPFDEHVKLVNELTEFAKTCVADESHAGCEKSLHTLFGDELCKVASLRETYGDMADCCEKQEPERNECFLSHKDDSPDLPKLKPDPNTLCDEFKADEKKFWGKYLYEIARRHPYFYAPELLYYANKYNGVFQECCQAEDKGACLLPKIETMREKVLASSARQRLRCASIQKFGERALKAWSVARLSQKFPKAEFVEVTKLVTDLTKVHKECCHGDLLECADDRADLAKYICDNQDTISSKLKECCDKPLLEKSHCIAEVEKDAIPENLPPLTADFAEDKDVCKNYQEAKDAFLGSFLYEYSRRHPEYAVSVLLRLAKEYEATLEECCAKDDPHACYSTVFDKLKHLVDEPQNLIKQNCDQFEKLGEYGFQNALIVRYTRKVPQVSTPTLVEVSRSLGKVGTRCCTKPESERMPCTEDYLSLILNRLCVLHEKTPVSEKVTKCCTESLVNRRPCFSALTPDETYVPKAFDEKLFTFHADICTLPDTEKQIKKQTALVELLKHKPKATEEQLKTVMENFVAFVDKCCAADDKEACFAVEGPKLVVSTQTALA
oxazolone-bovine serum albumin, sequence (P02769 25-607 limits assumed): as above

B1: 6B1 IgG4 (antibody, V domains shown)
VH: EVQLVESGGGVVQPGRSLRLSCAASGFTFSSYGMHWVRQAPGKGLEWVAVIWYDGSNKYYADSVKGRFTISRDNSKNTLYLQMDSLRAEDTAVYYCGRTLESSLWGQGTLVTVSS
VL: SSELTQDPAVSVALGQTVRITCQGDSLRSYYASWYQQKPGQAPVLVIYGKNNRPSGIPDRFSGSSSGNTASLTITGAQAEDEADYYCNSRDSSSTHRGVFGGGTKLTVLG
notes: Whole antibody: human gamma 4 and human lambda constant regions; FITC-labelled in the human tissue study; also called antibody 6B1
The term IC50 denotes the midpoint of a concentration-inhibition curve. Turning to B1, in test [1], the “IC50 in TF1 neutralisation assay, 6B1 IgG4 from GS/NS0 cell line 5D8-2A6” value is 1.8 nM. For the same molecule, the “I.C.50 in TF1 assay (neutralisation of TGFβ2 inhibition of TF1 cell proliferation)” value in test [2] stood at 11 nM. The binding result in test [3], in test [4], in test [5], in test [6], in test [7] and in test [8] was “no binding” throughout. Also, the binding result in [9] and in test [10] was “no binding” in each case. Also, the IC50 was above 400 nM in [11] and 0.6 nM in test [12].
